Reference: patent US20200223906A1 (Adimab, published 2020)
Changes are numbered by the printed parent chain.

B1: ADI-18900 (antibody, V domains shown)
VH: EVQLLESGGALVEPGGSLRLSCAASGFSFNTYSMNWVRQGPGKGLEWVATISTSTAGSYYADSVRGRFTISRDNSKNTLYLQMNSLRVEDTAVYYCARDQEVELIDDAFDFWGRGTMVTVSS
VL: DIVMTQTHSSLSASVGDRVTITCRASQSISIWVAWYQQKPGKAPNLLIYKASSLQSGVPSRFSGSGSGTEFTLTISSLQPDDSATYYCQQYYTYYSFGQGTKLEIK
notes: full-length IgG from yeast
B2: ADI-18975 (antibody, V domains shown)
VH: QVQLVQSGAEVKKPGASVKVSCKASGYTFVHYGISWVRQAPGQGLEWMGWISAYNGNTNSALKFQDRVTMTTDPSTSTAYMELRSLRSDDTAIYYCARDSGCCSGSTSDVWGKGTTVTVSS
VL: DIVMTQSPLSSPVTLGQPASISCRSSQSLVHSDGNTYLSWLHQRPGQPPRLLIYKISHRFSGVPDRFTGSGAGTDFTLKISRVEAEDVGVYYCMQATEFPPMYTFGQGTKVEIK
notes: full-length IgG from yeast; also called Antibody Number 323; Ab # 323
B3: ADI-18908 (antibody, V domains shown)
VH: QVQLVESGGGLVKPGGSLRLSCAASGFTFSSFGMHWVRQAPGQGLEWVASITGGSSYINYADSVKGRFTISRDNAKKSLSLQMKNLRAEDTAEYYCVRGVLPGGTGGGWFDSWGQGTLVTVSS
VL: QSVLTQPPSMSGAPGQRVTISCTGTSSNIGAGYDVQWYQQFPGTAPKLLISGNNNRPSGVPDRFSGSKSGASASLAITGLQAEDEADYYCQSYDYSLNWVFGGGTKLTVL
notes: full-length IgG from yeast
B4: ADI-18917 (antibody, V domains shown)
VH: B3 VH with Q1E, G104D
VL: B3 VL
notes: full-length IgG from yeast; also called Antibody Number 271; Ab # 271
B5: ADI-18889 (antibody, V domains shown)
VH: QVQLQQWGAGLWKPSQTLSLTCAVHGGSLSGYSWSWIRQSPGRGLEWIGEVNRRGTTNYNPSLKGRVSISWDTSKNQVSLSLRSVTAADTATYYCAGTNVGFVNTHNDYYFGMDVWGQGTTVTVSS
VL: DIVMTQSPSSLSASVGDRVTITCRASQSISNYVNWYQKKTGQVPKLLIYGASNLESGVPSRFSGGGSGTDFTLTISSLQPEDFATYYCQQSYSVPLTFGGGTKVEIK
notes: full-length IgG from yeast; also called Antibody Number 244; Ab # 244
B6: ADI-18893 (antibody, V domains shown)
VH: EVQLLESGGGLVKPGGSLRLSCVASGFTFSSYNINWVRQAPGKGLEWVSSISGGSNYIDYADSVKGRFTISRDNAKNSLYLQMNNLRAEDTAVYYCARLGYGGNPELDYWGQGTLVTVSS
VL: QSVLTQPPSVSGAPGQRVTISCTGSSSNIGAGYDVHWYQQRPGTAPKLLIYANNNRPSGVPDRFSGSKSGTSASLAITGLQAEDEADYYCQSYDLSLSSSRVFGGGTKLTVL
notes: full-length IgG from yeast; also called Antibody Number 248; Ab # 248
B7: ADI-18913 (antibody, V domains shown)
VH: QVQLVQSGPEVKKPGESLTISCKGSGYDFSNNWIGWVRQMPGKGLEWMGIIYPGDSDTRYSPSFQGQVTLSVDKSISTAYLQWRSLKASDSGIYYCARQIGGLVCSSESCYFYGMDVWGQGTTVTVSS
VL: DIQLTQSPSSLSASVGGRVTITCRASQSISNYLNWYQHKPGKAPELLIYGASSLQSGVPSRFSGSGSGTDFTLTISSLQPEDFATYYCQQSDTTPFTFGQGTKVDIK
notes: full-length IgG from yeast
B8: ADI-18916 (antibody, V domains shown)
VH: B7 VH
VL: B7 VL with Q3R, L4V, V104L, D105E
notes: full-length IgG from yeast; also called Antibody Number 270; Ab # 270
B9: ADI-18977 (antibody, V domains shown)
VH: QVQLVQSGTEVKKPGASVKISCKTSGYTFTNNVIQWVRQAPGQRLEWMGWISAGNGYTKYSDKFQDRVTITRDTSASTAYMEVSSLTSEDTAMYYCARQVSTSGWHATSHRFAPWGQGTLVTVSS
VL: DIQMTQSPSSLSASVGDRVTITCQASQGISRYLNWYQQKPGKAPNLLIYDASNLETGVPSRFSGSGSGTHFTLTISSLQPEDIATYYCQQYDNLPLTFGGGTKVEIK
notes: full-length IgG from yeast
B10: ADI-18912 (antibody, V domains shown)
VH: EVQLVESGGGLVKPGGALRLSCAASGFSFRSYSMNWVRQAPGKGLEWVSSISSSSNYINYADSVKGRFSISRDNAKNSLYLQMNSLRAEDTAVYYCARDLLPVERGPAFDIWGQGTMVTVSS
VL: SYELTQPPSVSGAPGQRVTISCTGSSSNIGAGYDVHWFQQLPGAAPKLLIYANSNRPSGVPDRFSGSKSGTSASLAITGLQAEDEADYYCQSYDSRLGGSVFGGGTKVTVL
notes: full-length IgG from yeast
B11: ADI-18969 (antibody, V domains shown)
VH: QVQLVQSGPEVKKPGASVTVSCKASGYTFSHYGISWVRQAPGQGLEWMGWISAYHGQTNYAQNFQGRVTMTTDTSSNTAYMEVRSLRSDDTAVYFCARDVFSKTAARIFDYWGQGTLVTVSS
VL: EIVLTQSPLSLPVTLGQPASISCRSSQSLEYSDGNTYLSWFQQRPGQSPRRLIYKVSNRDSGVPDRFSGSQSGTDFTLKISRVEAEDVGVYYCMQATDWPVTFGQGTKLEIK
notes: full-length IgG from yeast; also called Antibody Number 317; Ab # 317
B12: ADI-18892 (antibody, V domains shown)
VH: QVQLVQSGAEVKEPGASVRVSCKASGYTFTSYGISWVRQAPGQGLEWMGWISAYNGNTNYAQKFQGRVTVTTDTSTSAAYMELRSLRSDDTAIYYCARDSFSLTGAGFPDYWGQGTLVTVSS
VL: B11 VL with L4M, E30V, S39N, Q71G, G73D, D98Q, V101R, L109V
notes: full-length IgG from yeast
B13: ADI-18877 (antibody, V domains shown)
VH: QVQLVQSGTEVKKPGASVKVSCKAAGYTFSNYGVSWVRQAPGQGLEWMGWISAYNGNTKFAQKVQGRLTMTTDTSTSTAYMELRNLRSDDTAVYYCARESGATAAAMFDYWGQGTLVTVSS
VL: ETTLTQSPLSLPVTLGQPASISCRSSQSLEYSDGNIYLSWFQQRPGQSPRRLIYKVSHRDSGVPDRFSGSGSGTDFTLKIARVEAEDVAVYYCMQAIHWPRTFGQGTKVDIK
notes: full-length IgG from yeast; also called Antibody Number 234; Ab # 234
B14: ADI-18898 (antibody, V domains shown)
VH: B13 VH
VL: B13 VL with T2I, T3V, D110E
notes: full-length IgG from yeast
B15: ADI-18890 (antibody, V domains shown)
VH: QVQLVQSGAEVKRPGSSVKVSCKASGGTFRGYHISWLRQAPGQGLEWLGGITHLFGTVSYAPKFQGRVTITADASTGTLYMVLNSLKPEDTAIYYCARDAYEVWTGSYLPPFDYWGQGTLVTVSS
VL: ETTLTQSPGTLSLSPGERATLSCRASQTVTSNYLAWYQQKPGQAPRLLIYDALTRATGIPDRFSGSGSGTDFTLTISRLEPEDFALYYCQQYGSSFLTFGGGTKVDIK
notes: full-length IgG from yeast
B16: ADI-18891 (antibody, V domains shown)
VH: B15 VH with V5Q, Q6E, R13K, T28A, R30S, G31S, H33A, L37V
VL: B15 VL with T2I, T3V, V105L, D106E
notes: full-length IgG from yeast; also called Antibody Number 246; Ab # 246
B17: ADI-18902 (antibody, V domains shown)
VH: QVQLQESGPGLVKPSETLSLTCTVSGGSISGYYWSWIRQPPGRGLEWIGFIYYSGSTSYDSSLKSRVTISVDTSKNQFSLNLSSVTAADTAVYYCARSTWDYGDHFPFDYWGQGTLVTVSS
VL: SYELTQPPSVSVAPGKTARITCGGNNIGIKDVHWYQLRPGQAPVLVISYDSDRPSGIPERFSGSNSGNTATLTISRVEAGDEADYFCQVWDSSPDHPYVFGTGTKLTVL
notes: full-length IgG from yeast
B18: ADI-18974 (antibody, V domains shown)
VH: QVQLVQSGPEVKKPGASVRVSCEASGYPFSNYGITWVRQAPGQGLEWMGWISAYNGNRDYLQKFQGRLTMTIDTSTRTAHMELRRLTSDDTAVYWCARDTPATAAPLLDYWGQGTLVTVSS
VL: DIVMTQSPLSLAVTLGQPASISCRSSQSLEFTDGNTYLNWFQQRPGQSPRRLIYKVSNRDSGVPDRFSGSGSGTGFTLKISRVEAEDVGVYYCMQGIFRPGTFGQGTKVEIK
notes: full-length IgG from yeast
B19: ADI-18971 (antibody, V domains shown)
VH: EVQLVESGGGLVQRGGSLRLSCAASGFTFSGNAMSWVRQAPGKGLEWVASIGESATSAYYADSVKGRFTISRDDSKNTLYLQMNSLRPEDTAVYFCAKDRVGWFGEFDAFDFWGQGTMVTVSS
VL: SYELTQPPSVSVAPGKTATISCGGNNIGGHKVHWYQQRPGQAPVLVIYYDNVRPSGIPERFSGSNSGNTATLTISRVEAGDEADFYCQVWDSRSEHVIFGGGTKVTVL
notes: full-length IgG from yeast; also called Antibody Number 319; Ab # 319

Assays:
[1] = molecular target: T1, RSV F subtype A, furin-cleaved ectodomain stabilized in the prefusion conformation (DS-Cav1) (Respiratory syncytial virus subtype A, UniProt P03420 26-524); test: BLI, IgG on AHQ sensor, 100 nM antigen
T1 construct: extracellular domain; Trimeric soluble antigen; also called Prefusion subtype A

[2] = molecular target: T2, RSV F subtype B, furin-cleaved ectodomain stabilized in the prefusion conformation (DS-Cav1) (Respiratory syncytial virus subtype B); test: BLI, IgG on AHQ sensor, 100 nM antigen
T2 construct: extracellular domain; Trimeric soluble antigen; also called Prefusion subtype B

[3] = molecular target: RSV F protein of subtype A (strain A2) on recombinant mKate-RSV virus (Respiratory syncytial virus subtype A …, UniProt P03420 26-574); test: cell-based or functional assay
[4] = molecular target: RSV F protein of subtype B (18537) on recombinant mKate-RSV virus (Respiratory syncytial virus subtype B …, UniProt P13843 26-574); test: cell-based or functional assay

Row | Binder | Kd [1] [nM] | Kd [2] [nM] | Neut IC50 (µg/ml) subtype A [3] [µg/mL] | Neut IC50 (µg/ml) subtype B [4] [µg/mL]
1 | B1 | 1.19 | 0.331 | 0.035 | 0.059
2 | B2 | 0.267 | 0.298 | 0.037 | 0.174
3 | B3 | 0.302 | 0.352 | 0.018 | 0.095
4 | B4 | 0.356 | 0.332 | 0.024 | 0.091
5 | B5 | 0.554 | 0.587 | 0.04 | 0.019
6 | B6 | 0.245 | 0.278 | 0.123 | 0.182
7 | B7 | 0.568 | 0.471 | < 0.01 | < 0.01
8 | B8 | 0.585 | 0.465 | < 0.01 | < 0.01
9 | B9 | 0.786 | 0.966 | 0.108 | 0.117
10 | B10 | 0.258 | 0.286 | 0.024 | 0.061
11 | B11 | 0.303 | 0.297 | 0.035 | 0.187
12 | B12 | 0.217 | 0.253 | 0.018 | 0.117
13 | B13 | 0.303 | 0.383 | 0.41 | 0.13
14 | B14 | 0.305 | 0.325 | 0.03 | 0.097
15 | B15 | 0.489 | 0.458 | 0.041 | 0.041
16 | B16 | 0.534 | 0.513 | 0.012 | 0.026
17 | B17 | 0.107 | 0.101 | 0.024 | 0.15
18 | B18 | 0.253 | 0.29 | 0.03 | 0.105
19 | B19 | 0.157 | 0.168 | 0.039 | 0.114
